Assay results taken from paper PMC9482650, “Quantitative fragmentomics allow affinity mapping of interactomes” (Nature Communications, 2022).

T1: APBA2_2, Q99767
T1 sequence (Q99767 654-744, limits assumed, looked up): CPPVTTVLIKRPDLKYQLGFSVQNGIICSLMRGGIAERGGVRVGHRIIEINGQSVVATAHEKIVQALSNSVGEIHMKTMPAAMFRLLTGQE

T2: ARHGAP21, Q5T5U3
T2 sequence (Q5T5U3 45-169, limits assumed, looked up): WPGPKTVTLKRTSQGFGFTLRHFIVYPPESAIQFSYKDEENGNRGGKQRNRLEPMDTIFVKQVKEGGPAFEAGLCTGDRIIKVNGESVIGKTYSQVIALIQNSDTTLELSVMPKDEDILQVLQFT

T3: CARD11, Q9BXL7
T3 sequence (Q9BXL7 662-765, limits assumed, looked up): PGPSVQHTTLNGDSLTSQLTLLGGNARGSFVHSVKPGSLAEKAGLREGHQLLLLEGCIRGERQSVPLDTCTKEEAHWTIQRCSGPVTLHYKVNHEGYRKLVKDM

T4: DFNB31_1, Q9P202
T4 sequence (Q9P202 135-233, limits assumed, looked up): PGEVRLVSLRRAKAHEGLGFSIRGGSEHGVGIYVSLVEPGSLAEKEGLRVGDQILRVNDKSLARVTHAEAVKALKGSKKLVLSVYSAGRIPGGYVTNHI

T5: DFNB31_2, Q9P202
T5 sequence (Q9P202 274-371, limits assumed, looked up): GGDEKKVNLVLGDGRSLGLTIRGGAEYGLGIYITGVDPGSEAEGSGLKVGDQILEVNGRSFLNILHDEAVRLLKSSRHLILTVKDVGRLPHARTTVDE

T6: DFNB31_3, Q9P202
T6 sequence (Q9P202 811-907, limits assumed, looked up): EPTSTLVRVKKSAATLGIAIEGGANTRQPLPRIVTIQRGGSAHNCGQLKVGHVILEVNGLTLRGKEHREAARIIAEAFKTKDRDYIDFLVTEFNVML

T7: HTRA3, P83110
T7 sequence (P83110 354-453, limits assumed, looked up): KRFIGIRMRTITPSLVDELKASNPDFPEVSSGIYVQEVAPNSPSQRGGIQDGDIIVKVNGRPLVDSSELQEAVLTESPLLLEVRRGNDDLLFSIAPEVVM

T8: LNX2_2, Q8N448
T8 sequence (Q8N448 334-432, limits assumed, looked up): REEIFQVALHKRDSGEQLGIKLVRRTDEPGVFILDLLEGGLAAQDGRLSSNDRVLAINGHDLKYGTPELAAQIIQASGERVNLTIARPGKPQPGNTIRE

T9: MPDZ_12, O75970
T9 sequence (O75970 1857-1958, limits assumed, looked up): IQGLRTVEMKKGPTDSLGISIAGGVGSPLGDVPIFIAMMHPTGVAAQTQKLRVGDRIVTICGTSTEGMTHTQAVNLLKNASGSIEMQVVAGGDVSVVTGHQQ

T10: RAPGEF6, Q8TEU7
T10 sequence (Q8TEU7 525-625, limits assumed, looked up): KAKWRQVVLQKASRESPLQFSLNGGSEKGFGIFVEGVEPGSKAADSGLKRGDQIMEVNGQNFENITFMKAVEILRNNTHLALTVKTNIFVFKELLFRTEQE

T11: SNTB1, Q13884
T11 sequence (Q13884 107-205, limits assumed, looked up): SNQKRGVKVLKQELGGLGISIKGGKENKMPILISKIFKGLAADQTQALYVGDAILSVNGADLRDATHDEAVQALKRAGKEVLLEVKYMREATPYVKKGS

T12: SNTG1, Q9NSN8
T12 sequence (Q9NSN8 52-150, limits assumed, looked up): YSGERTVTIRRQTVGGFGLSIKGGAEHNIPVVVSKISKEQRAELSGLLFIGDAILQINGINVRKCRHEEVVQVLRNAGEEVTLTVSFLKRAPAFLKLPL

T13: TJP3_3, O95049
T13 sequence (O95049 375-456, limits assumed, looked up): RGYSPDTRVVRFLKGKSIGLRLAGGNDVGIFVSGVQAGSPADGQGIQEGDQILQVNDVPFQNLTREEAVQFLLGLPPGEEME


What follows are binders tested against T1, APBA2_2, Q99767 (assay: holdup assay). Settings: plain residues with an end cap or a label only (N-terminal biotin on a linker: ado-ado).
Set-up: key: below the threshold = too weak to quantify, mostly under pKd 3.1 to 4
EVNETDDTKM [KCNJ1, P48048] was tested, and the pKd was “below the threshold”.

What follows are binders tested against T2, ARHGAP21, Q5T5U3 (assay: holdup assay). Settings: plain residues with an end cap or a label only (N-terminal biotin on a linker: ado-ado).
Set-up: key: below the threshold = too weak to quantify, mostly under pKd 3.1 to 4
EVNETDDTKM [KCNJ1, P48048] was tested, and the pKd was 3.96.

The binders below were run against T3, CARD11, Q9BXL7 (assay: holdup assay). Settings: plain residues with an end cap or a label only (N-terminal biotin on a linker: ado-ado).
Set-up: key: below the threshold = too weak to quantify, mostly under pKd 3.1 to 4
For EVNETDDTKM [KCNJ1, P48048], the pKd was “below the threshold”.

What follows are binders tested against T4, DFNB31_1, Q9P202 (assay: holdup assay). Settings: plain residues with an end cap or a label only (N-terminal biotin on a linker: ado-ado).
Set-up: key: below the threshold = too weak to quantify, mostly under pKd 3.1 to 4
Work on EVNETDDTKM [KCNJ1, P48048] yielded a pKd of 3.69.

What follows are binders tested against T5, DFNB31_2, Q9P202 (assay: holdup assay). Settings: plain residues with an end cap or a label only (N-terminal biotin on a linker: ado-ado).
Set-up: key: below the threshold = too weak to quantify, mostly under pKd 3.1 to 4
EVNETDDTKM [KCNJ1, P48048] was tested, and the pKd was “below the threshold”.

These binders were tested against T6, DFNB31_3, Q9P202 (assay: holdup assay). Settings: plain residues with an end cap or a label only (N-terminal biotin on a linker: ado-ado).
Set-up: key: below the threshold = too weak to quantify, mostly under pKd 3.1 to 4
In the case of EVNETDDTKM [KCNJ1, P48048], the pKd is reported as “below the threshold”.

The binders below were run against FRMPD4, Q14CM0 (assay: holdup assay). Settings: plain residues with an end cap or a label only (N-terminal biotin on a linker: ado-ado).
FRMPD4, Q14CM0, sequence (Q14CM0 67-160): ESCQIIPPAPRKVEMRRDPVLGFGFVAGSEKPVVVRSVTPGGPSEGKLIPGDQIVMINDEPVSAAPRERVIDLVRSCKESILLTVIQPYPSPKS
Set-up: key: below the threshold = too weak to quantify, mostly under pKd 3.1 to 4
Binder EVNETDDTKM [KCNJ1, P48048] has a pKd of 3.75.

Each binder was assayed against GIPC2, Q8TF65 (assay: holdup assay). Settings: plain residues with an end cap or a label only (N-terminal biotin on a linker: ado-ado).
GIPC2, Q8TF65, sequence (Q8TF65 112-203): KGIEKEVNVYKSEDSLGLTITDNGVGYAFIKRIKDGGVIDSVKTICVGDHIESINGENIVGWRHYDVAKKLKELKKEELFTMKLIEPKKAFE
Set-up: key: below the threshold = too weak to quantify, mostly under pKd 3.1 to 4
For EVNETDDTKM [KCNJ1, P48048], the pKd was “below the threshold”.

What follows are binders tested against T7, HTRA3, P83110 (assay: holdup assay). Settings: plain residues with an end cap or a label only (N-terminal biotin on a linker: ado-ado).
Set-up: key: below the threshold = too weak to quantify, mostly under pKd 3.1 to 4
With EVNETDDTKM [KCNJ1, P48048] the pKd was “below the threshold”.

What follows are binders tested against IL16_3, Q14005 (assay: holdup assay). Settings: plain residues with an end cap or a label only (N-terminal biotin on a linker: ado-ado).
IL16_3, Q14005, sequence (Q14005 1107-1207): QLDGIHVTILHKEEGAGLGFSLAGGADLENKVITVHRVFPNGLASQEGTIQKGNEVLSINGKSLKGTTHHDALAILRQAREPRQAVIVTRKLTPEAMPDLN
Set-up: key: below the threshold = too weak to quantify, mostly under pKd 3.1 to 4
With EVNETDDTKM [KCNJ1, P48048] the pKd was “below the threshold”.

What follows are binders tested against Inadl_10, Q8NI35 (assay: holdup assay). Settings: plain residues with an end cap or a label only (N-terminal biotin on a linker: ado-ado).
Inadl_10, Q8NI35, sequence (Q8NI35 1673-1763): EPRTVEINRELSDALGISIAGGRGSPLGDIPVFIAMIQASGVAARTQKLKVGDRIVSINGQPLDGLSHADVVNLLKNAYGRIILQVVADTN
Set-up: key: below the threshold = too weak to quantify, mostly under pKd 3.1 to 4
For EVNETDDTKM [KCNJ1, P48048], the pKd was 3.59.

The binders below were run against Inadl_4, Q8NI35 (assay: holdup assay). Settings: plain residues with an end cap or a label only (N-terminal biotin on a linker: ado-ado).
Inadl_4, Q8NI35, sequence (Q8NI35 547-651): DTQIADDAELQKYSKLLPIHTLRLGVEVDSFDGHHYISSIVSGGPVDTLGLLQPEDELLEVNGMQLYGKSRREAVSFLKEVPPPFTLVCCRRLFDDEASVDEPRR
Set-up: key: below the threshold = too weak to quantify, mostly under pKd 3.1 to 4
For EVNETDDTKM [KCNJ1, P48048], the pKd was “below the threshold”.

These binders were tested against T8, LNX2_2, Q8N448 (assay: holdup assay). Settings: plain residues with an end cap or a label only (N-terminal biotin on a linker: ado-ado).
Set-up: key: below the threshold = too weak to quantify, mostly under pKd 3.1 to 4
EVNETDDTKM [KCNJ1, P48048] was tested, and the pKd was “below the threshold”.

What follows are binders tested against MAGI2_6, Q86UL8 (assay: holdup assay). Settings: plain residues with an end cap or a label only (N-terminal biotin on a linker: ado-ado).
MAGI2_6, Q86UL8, sequence (Q86UL8 1141-1229): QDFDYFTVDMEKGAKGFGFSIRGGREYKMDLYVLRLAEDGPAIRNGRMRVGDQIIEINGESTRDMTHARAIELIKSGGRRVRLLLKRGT
Set-up: key: below the threshold = too weak to quantify, mostly under pKd 3.1 to 4
For EVNETDDTKM [KCNJ1, P48048], the pKd was 3.56.

The binders below were run against T9, MPDZ_12, O75970 (assay: holdup assay). Settings: plain residues with an end cap or a label only (N-terminal biotin on a linker: ado-ado).
Set-up: key: below the threshold = too weak to quantify, mostly under pKd 3.1 to 4
For EVNETDDTKM [KCNJ1, P48048], the pKd was “below the threshold”.

These binders were tested against NHERF4_2, Q86UT5 (assay: holdup assay). Settings: plain residues with an end cap or a label only (N-terminal biotin on a linker: ado-ado).
NHERF4_2, Q86UT5, sequence (Q86UT5 220-308): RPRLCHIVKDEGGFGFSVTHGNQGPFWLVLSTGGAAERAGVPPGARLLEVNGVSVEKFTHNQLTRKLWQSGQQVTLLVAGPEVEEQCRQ
Set-up: key: below the threshold = too weak to quantify, mostly under pKd 3.1 to 4
In the case of EVNETDDTKM [KCNJ1, P48048], the pKd is reported as “below the threshold”.

These binders were tested against NOS1, P29475 (assay: holdup assay). Settings: plain residues with an end cap or a label only (N-terminal biotin on a linker: ado-ado).
NOS1, P29475, sequence (P29475 9-101): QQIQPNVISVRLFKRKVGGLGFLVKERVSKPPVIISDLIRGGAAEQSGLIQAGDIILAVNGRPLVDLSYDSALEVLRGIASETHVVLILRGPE
Set-up: key: below the threshold = too weak to quantify, mostly under pKd 3.1 to 4
In the case of EVNETDDTKM [KCNJ1, P48048], the pKd is reported as “below the threshold”.

The binders below were run against PICK1, Q9NRD5 (assay: holdup assay). Settings: plain residues with an end cap or a label only (N-terminal biotin on a linker: ado-ado).
PICK1, Q9NRD5, sequence (Q9NRD5 17-115): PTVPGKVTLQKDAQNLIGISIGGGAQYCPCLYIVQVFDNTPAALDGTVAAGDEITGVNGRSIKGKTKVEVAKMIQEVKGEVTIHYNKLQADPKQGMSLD
Set-up: key: below the threshold = too weak to quantify, mostly under pKd 3.1 to 4
EVNETDDTKM [KCNJ1, P48048] was tested, and the pKd was 4.17.

These binders were tested against PTPN3, P26045 (assay: holdup assay). Settings: plain residues with an end cap or a label only (N-terminal biotin on a linker: ado-ado).
PTPN3, P26045, sequence (P26045 505-587): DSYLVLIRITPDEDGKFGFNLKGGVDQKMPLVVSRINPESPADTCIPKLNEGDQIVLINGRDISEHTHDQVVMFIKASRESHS
Set-up: key: below the threshold = too weak to quantify, mostly under pKd 3.1 to 4
EVNETDDTKM [KCNJ1, P48048] was tested, and the pKd was 4.35.

These binders were tested against T10, RAPGEF6, Q8TEU7 (assay: holdup assay). Settings: plain residues with an end cap or a label only (N-terminal biotin on a linker: ado-ado).
Set-up: key: below the threshold = too weak to quantify, mostly under pKd 3.1 to 4
With EVNETDDTKM [KCNJ1, P48048] the pKd was “below the threshold”.

The binders below were run against SCRIB_1, Q14160 (assay: holdup assay). Settings: plain residues with an end cap or a label only (N-terminal biotin on a linker: ado-ado).
SCRIB_1, Q14160, sequence (Q14160 718-814): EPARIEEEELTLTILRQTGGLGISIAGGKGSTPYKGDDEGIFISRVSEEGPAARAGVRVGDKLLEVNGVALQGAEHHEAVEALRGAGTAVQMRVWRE
Set-up: key: below the threshold = too weak to quantify, mostly under pKd 3.1 to 4
In the case of EVNETDDTKM [KCNJ1, P48048], the pKd is reported as “below the threshold”.

The binders below were run against T11, SNTB1, Q13884 (assay: holdup assay). Settings: plain residues with an end cap or a label only (N-terminal biotin on a linker: ado-ado).
Set-up: key: below the threshold = too weak to quantify, mostly under pKd 3.1 to 4
With EVNETDDTKM [KCNJ1, P48048] the pKd was “below the threshold”.

The binders below were run against T12, SNTG1, Q9NSN8 (assay: holdup assay). Settings: plain residues with an end cap or a label only (N-terminal biotin on a linker: ado-ado).
Set-up: key: below the threshold = too weak to quantify, mostly under pKd 3.1 to 4
For EVNETDDTKM [KCNJ1, P48048], the pKd was 3.54.

What follows are binders tested against SNX27, Q96L92 (assay: holdup assay). Settings: plain residues with an end cap or a label only (N-terminal biotin on a linker: ado-ado).
Set-up: key: below the threshold = too weak to quantify, mostly under pKd 3.1 to 4
With EVNETDDTKM [KCNJ1, P48048] the pKd was 4.6.

Each binder was assayed against T13, TJP3_3, O95049 (assay: holdup assay). Settings: plain residues with an end cap or a label only (N-terminal biotin on a linker: ado-ado).
Set-up: key: below the threshold = too weak to quantify, mostly under pKd 3.1 to 4
For EVNETDDTKM [KCNJ1, P48048], the pKd was “below the threshold”.
